Data set [1] is described as follows: 125I-TRAIL biodistribution in tumor-bearing mice. It is filed as in vivo. The method, then:
Radioiodination of TRAIL was performed with a TRAIL solution of 1 mg/ml in a pH 7.4 TRIS buffer, containing 100 μM zinc sulphate and 10% glycerol. 45 μg TRAIL and 50 μg chloramine T (Merck, Amsterdam, The Netherlands) were allowed to react with 70 MBq ^125I-NaI in 0.05 M NaOH (pH 9.0, GE Healthcare, Eindhoven, The Netherlands) during 3 min at pH 8.0. The labeling reaction was terminated with sodium metabisulfite (Acros Organics, Geel, Belgium). Non-bound ^1251 was removed by gel filtration chromatography. The PD-10 column (Sephadex™ G-25M, Amersham Biosciences AB, Uppsala, Sweden) was eluted with TRIS buffer, containing 100 μM zinc sulphate, 10% glycerol and 0.5% human serum albumin. Nude mice with IP A2780-Luc xenografts were prepared, as described above.
The in vivo biodistribution study was conducted in 50 mice after establishment of A2780-Luc IP xenografts. ^125I-TRAIL (0.15 ml; 150 kBq, 0.5 μg) was administered IV through retro-orbital injection in 25 mice, and IP in 25 mice. At five time points after injection (t=15, 30, 60, 90 and 360 min) groups of 5 mice were sacrificed and organs and tissues were excised, rinsed for residual blood and weighed. Tumor tissue was additionally fixed in 10% buffered formalin for histological assessment. Samples were counted for radioactivity in a calibrated well-type LKB-1282-CompuGamma counter. Tissue activity was expressed as percentage of the injected dose/g tissue (% ID/g). Tumor-to- blood and tumor-to-muscle ratios were also calculated. All data were corrected for physical decay and compared with a known standard sample. Pharmacokinetic parameters were derived using the KINFIT module of the MW/PHARM computer program package (version 3.50, MediWare, Groningen, The Netherlands). Clearance rates of ^125I-TRAIL from the circulation were calculated using non-linear regression analysis.

For the next data set, the system named is TRAIL R1, R2, R3 and R4. The data set can be described thus: TRAIL receptor membrane expression by flow cytometry. The format is cell-based.
In the next data set the test system is p53. The data set is described as follows: p53 protein expression in cervical cancer cell lines. It is filed as cell-based. As to the method:
All three cervical cancer cell lines were treated with increasing concentration of Bortezomib to assess expression of p53 protein.

A further data set relates to Colo205 tumors. The data set can be described thus: Colo205 tumors in athymic nude mice. The format is in vivo. To be noted: 40 and 200 mg/kg, 2×5 days.
The subject of the next data set is A2780 cells. The data set can be described thus: Microculture tetrazolium cytotoxicity assay in A2780. The format is cell-based, human. To be noted: A2780, 4 h pre-incubation; read-out: inhibitory concentration 20% (IC20). The method, then:
The microculture tetrazolium assay, performed as described earlier^36, was used to measure cytotoxicity. […] In cell viability assays assessing combination treatment with cisplatin, the cells were pre-incubated for 4 h (h) with 2.5 μM cisplatin (inhibitory concentration 20%-IC20), before addition of 0-25 ng/ml TRAIL or TRAIL-DR5.

In a further data set the test system is A2780-Luc xenografts. The data set is described as follows: IP A2780-Luc xenografts, bioluminescence imaging.
Setting [2] is: Colo205, 5 mM Aspirin or 10 μM 5-Flurouracil, 24 h.
Setting [3] is: Lovo, 2.5 mM Aspirin or 10 μM 5-Flurouracil, 24 h.
Setting [4] is: SW948, 2.5 mM Aspirin or 10 μM 5-Flurouracil, 24 h.

Description for A2780-Luc xenografts: Visualization of response to TRAIL, TRAIL-DR5, cisplatin and to the combination of either ligand with cisplatin by means of bioluminescence imaging. Nude mice were inoculated IP with 2×10^6 A2780-Luc cells. After 5 days treatment was initiated; cisplatin (4 mg/kg IP) or vehicle at day 5 and 12, TRAIL, TRAIL-DR5 (5 mg/kg IP) or vehicle at day 5-10 and 12-16, or a combination of TRAIL or TRAIL-DR5 with cisplatin.
Female nude mice (Hsd:Athymic Nude-nu) were obtained from Harlan Nederland (Horst, The Netherlands) at 6-8 weeks of age (˜21 g). Inoculation was performed after 10 days of acclimatization.
Imaging was conducted with the IVIS 100 series (Xenogen Corporation Alameda, Calif.), composed of a cooled charge-coupled device camera connected to a light tight black chamber. Before in vivo imaging animals were anesthetized with 4% isoflurane and injected IP with D-luciferin (150 mg/kg, Xenogen) reconstituted in sterile PBS. Mice were placed in prone position on a warmed stage (37° C.) in the imaging chamber, and grayscale reference images were obtained under dim illumination. Pseudocolor images representing bioluminescent intensity were acquired with Livinglmage software (version 2.50, Xenogen) 10 and 15 min after D-luciferin injection in complete darkness. These images were superimposed on the grayscale images for analysis with Igor Pro software (version 4.09, WaveMetrics, Lake Oswego, Oreg.). All bioluminescence imaging (BLI) data are depicted in radiance units (photons/sec/cm^2/sr) enabling absolute comparisons between bioluminescent images and represent final data obtained after subtraction of the background signal.
Description for TRAIL R1, R2, R3 and R4: Analysis of TRAIL-receptor membrane expression was performed by FACS analysis as described previously^35. For death receptor expression after cisplatin exposure, cells were exposed for 4 h, washed with PBS and incubated for 20 h in regular culture medium, after which FACS analysis was performed. Cells were subsequently washed twice with cold PBS containing 2% FCS and 0.1% sodium azide and incubated with phycoerythrin (PE)-conjugated mouse monoclonal antibodies against DR4, DR5, DcR1 and DcR2. Mouse PE-labeled IgG1 and IgG2B were used as isotype controls. All PE-labeled antibodies were purchased from R&D systems (Oxon, UK). Membrane receptor expression was analyzed with Winlist and Winlist 32 software (Verity Software House, Inc., Topsham, Me.) and is shown as mean fluorescent intensity (MFI) of all analyzed cells.
In order to determine the cell surface expression of each of the TRAIL receptors on A2780 carcinoma cells, cells were washed twice in PBS containing 1% BSA and then incubated with monoclonal antibodies to DR4, DR5, DcR1 or DcR2 (Alexis) for 40 min. After two wash steps with PBS/BSA, anti-mouse IgG-FITC (Sigma) secondary antibody was added for 30 min. All incubations were carried out on ice. Negative controls contained isotype control antibody. Cells were analyzed by a FacsCalibur flow cytometer.

On to 125I-TRAIL: radioiodinated TRAIL, for which the “cleaved caspase-3 staining in tumor tissue” value in data set [1] (15 min after injection) is listed as “almost no cleaved caspase-3 was detected”; in data set [1] (360 min after injection) it was “increased cleaved caspase-3 staining”. Also, the blood activity in data set [1] (IP, 15 min) worked out at 25.30±5.04 % ID/g; in data set [1] (IP, 30 min), 15.33±3.78 % ID/g; in data set [1] (IP, 90 min) it was 23.74±6.85 % ID/g; in data set [1] (IP, 360 min) it was 8.26±1.74 % ID/g; in data set [1] (IV, 15 min) it was 43.29±11.04 % ID/g; in data set [1] (IV, 30 min), 30.51±12.40 % ID/g. In addition, the blood activity in data set [1] (IV, 90 min) is 7.52±1.22 % ID/g; in data set [1] (IV, 360 min), 2.63±0.56 % ID/g. Moreover, the kidney uptake in data set [1] (IP, 15 min) was 19.83±1.38 % ID/g; in data set [1] (IP, 30 min), 21.45±1.90 % ID/g; in data set [1] (IP, 90 min) it was 17.87±1.28 % ID/g; in data set [1] (IP, 360 min), 4.45±0.31 % ID/g; in data set [1] (IV, 15 min), 199.2±40.69 % ID/g; in data set [1] (IV, 30 min) it was 126.6±49.68 % ID/g. Also, the kidney uptake is reported as 12.73±2.47 % ID/g in data set [1] (IV, 90 min) and 2.06±0.56 % ID/g in data set [1] (IV, 360 min). Moreover, the tumor activity is 11.31±1.51 in data set [1] (IP, 15 min); 12.91±3.29 in data set [1] (IP, 60 min); 6.85±1.29 in data set [1] (IV, 60 min (maximum)). Besides, the “tumor to blood ratio” value in data set [1] (IP, 15 min) was 0.48±0.03; in data set [1] (IP, 60 min) it was 0.55±0.06; in data set [1] (IV, 15 min), 0.13±0.02; in data set [1] (IV, 60 min), 0.38±0.04.

In the case of `O=c1[nH]cc(F)c(=O)[nH]1` [5-Flurouracil], the TRAIL receptor expression entry with TRAIL R1, R2, R3 and R4 (setting [2]) was “induction of all TRAIL receptors”; in the data set on TRAIL R1, R2, R3 and R4 (setting [3]), “induction of TRAIL R2, R3 and R4 receptors”; in the data set on TRAIL R1, R2, R3 and R4 (setting [4]) it was “did not lead to any induction of the TRAIL receptors”.

Regarding `CC(C)C[C@H](NC(=O)[C@H](Cc1ccccc1)NC(=O)c1cnccn1)B(O)O` [Bortezomib], the TRAIL receptor expression result was “increased receptor expression of TRAIL R2 and slight increase of TRAIL R3” in the data set on TRAIL R1, R2, R3 and R4 (Caski, 5 nM, 24 h); “increases receptor expression of all TRAIL receptors” in the data set on TRAIL R1, R2, R3 and R4 (Hela, 10 nM, 24 h); “increases receptor expression of all TRAIL receptors” in the data set with TRAIL R1, R2, R3 and R4 (SIHA, 10 nM, 24 h). The “induction of p53 protein” value in the data set on p53 (Caski) is “can be seen at concentrations of 1 nM with largest induction seen at 5 and 10 nM”; with p53 (HELA), “seen also at 5 and 10 nM, though relatively smaller”; in the data set on p53 (SiHa), “can be seen at 5 and 10 nM”.

Consider `CC(=O)Oc1ccccc1C(=O)O` [aspirin], for which the TRAIL receptor expression entry was “induction TRAIL R2, R3 and R4 receptor expression” in the data set with TRAIL R1, R2, R3 and R4 (setting [2]); “induction TRAIL R4 and to a lesser extent TRAIL R2 receptor expression” with TRAIL R1, R2, R3 and R4 (setting [3]); “induction TRAIL-R2 expression only” in the data set on TRAIL R1, R2, R3 and R4 (setting [4]). For the same molecule, the “effect on tumor growth, aspirin alone” value in the data set on Colo205 tumors is “no difference in effect”. For the same molecule, the side effects result with Colo205 tumors is listed as “no side effects were found”.

As for `N.N.[Cl][Pt][Cl]` [cisplatin, cis-diamminedichloroplatinum (II), reference compound], the IC20 with A2780 cells was found to be 2.5 µM. The TRAIL receptor expression entry in the data set with TRAIL R1, R2, R3 and R4 (A2780) was “dose dependent upregulation of DR5 and DcR2 expression”. The “mean signal reduction as to vehicle treated mice” value in the data set with A2780-Luc xenografts (day 16, IP treatment) amounted to 72.3%. In addition, the “light emission (bioluminescent signal)” value with A2780-Luc xenografts (day 16, mean±SEM) was 1.3×10^8±2.4×10^7 radiance units. In the data set with A2780-Luc xenografts (surrogate endpoint signal ≧3.1×10^8), this molecule returned a median survival of 28 days.

The record behind these values is patent US20110165265A1, “TRAIL VARIANTS FOR TREATING CANCER” (FUNDACIÓ GENÒMICA (CRG), priority 2007, published 2011).
